This is an account of results in the RNAGym collection of RNA variant scans (doi:10.7554/elife.80360).

B1: HDV Ribozyme (parent)
chain: GGCCGGCAUGGUCCCAGCCUCCUCGCUGGCGCCGGCUGGGCAACAUUCCGAGGGGACCGUCCCCUCGGUAAUGGCGAAUGGGACCCA

Variants of B1 are the subject of the data set. Put plainly: self-cleavage, relative activity (ratio to wild type); higher = more cleavage; co-transcriptional.
GGCCGGCAUGGUCCCAGCCUCCUCGCUGGCGCCGGCUGGGCAACAUUCCGAGCGGACCGUCCCCUCGGUAAUGGCGAAUGGGAACCA [G53C C84A]: the self-cleavage was 0.76.

As to GGCCGGCAUGGUCCCAGCCUCCUCUCUGGCGCCGGCUGGGCAACAUUCCGAGGGGACCGUCCUCUCGGUAAUGGCGAAUGGGACCCA [G25U C63U], the self-cleavage stood at 0.163.

Regarding GGCCGGCAUGGUCCCAGCCUCCUCGCUGGCGCCGGCUGGGCUACAAUCCGAGGGGACCGUCCCCUCGGUAAUGGCGAAUGGGACCCA [A42U U46A], the self-cleavage stood at 0.443.

Consider GGCCGGCAUGGACCCAGCCUCCUCGCUGGCGCCGGCUGGGCAAAAUUCCGAGGGGACCGUCCCCUCGGUAAUGGCGAAUGGGACCCA [U12A C44A], for which the self-cleavage worked out at 0.

As for GGCCGGCAUGGUCCCAGCCUCCUCGCUGGCGCCGGCUGGGCAACAUACCGAGCGGACCGUCCCCUCGGUAAUGGCGAAUGGGACCCA [U47A G53C], the self-cleavage amounted to 1.19.

On to GGCCGGCAUGGUCCCAGCCUCCUCGCGGGCGCCGGCUGGGCAACAUUCAGAGGGGACCGUCCCCUCGGUAAUGGCGAAUGGGACCCA [U27G C49A], for which the self-cleavage was 0.886.

GGCCGGCAUGGUCCCAGCCUCCUCGCUGGCGACGGCUGGGCAACAUUCCGAGGGGACCGUCCCUUCGGUAAUGGCGAAUGGGACCCA [C32A C64U]: the self-cleavage came to 0.175.

Regarding GGCCGGCAUGGUCCCAGCCUCCUCGCUGGCGCCGGCUGGGCAACAUUCCGUGGGAACCGUCCCCUCGGUAAUGGCGAAUGGGACCCA [A51U G55A], the self-cleavage stood at 1.17.

Consider GGCCGGCAUGGUCCCAGCCUCCUCUCUGGCGCCGACUGGGCAACAUUCCGAGGGGACCGUCCCCUCGGUAAUGGCGAAUGGGACCCA [G25U G35A], for which the self-cleavage stood at 0.0415.

Regarding GGCCGGCAUGGUCCCAGCCUCCUCUCUGGCGCCGGCUGGGCAACAUUCCGAGGGGACCCUCCCCUCGGUAAUGGCGAAUGGGACCCA [G25U G59C], the self-cleavage is 0.0997.

With GGCCGGCAUGGUCCCAGCCUCCUCGCUGGCGCCGGCUGGGCAACAUUCCGAGGGGGCCGUACCCUCGGUAAUGGCGAAUGGGACCCA [A56G C61A], the self-cleavage was 0.849.

With GGCCGGCAUGGUCCCAGCCUCCUCGCUGGCGCCGGCUGGGCAACAUUCCGAGGGGACCGUCCGCUCGGUAAUGCCGAAUGGGACCCA [C63G G74C], the self-cleavage came to 0.128.

On to GGCCGGCAUGGUCCCAGCCUCCUCACUGGCGCCGGCUGGGCAACAUUCCGAGGGGACCGUCCCGUCGGUAAUGGCGAAUGGGACCCA [G25A C64G], for which the self-cleavage stood at 0.13.

With GGCCGGCAUGGUCCCAGCGUCCUCGCUGGCGCCGGCUGGGCAACAUUCGGAGGGGACCGUCCCCUCGGUAAUGGCGAAUGGGACCCA [C19G C49G], the self-cleavage was determined as 0.0426.

With GGCCGGCAUGGUCCCAGCCUCCUCGCUGGCGCAGGCUGGGCAACAUUGCGAGGGGACCGUCCCCUCGGUAAUGGCGAAUGGGACCCA [C33A C48G], the self-cleavage was 0.125.

As to GGCCGGCAUGGUCCCAGCCUCCUCGCUGGCGCCGGCUGGGCAACAUUCCGAGGGGACCGUCCCCUCGGUAAUCGCGAAUGGGACCUA [G73C C86U], the self-cleavage came out at 0.914.

On to GGCCGGCAUGGUCCCAGCCUCCUCGCUGGCGCCGGCUGGGCAACAAUCCGAGGGCACCGUCCCCUCGGUAAUGGCGAAUGGGACCCA [U46A G55C], for which the self-cleavage stood at 0.682.

Turning to GGCCGGCAUGGUCCCAGCCUCCUCGCUGGUGCCGGCUGGGCAACAUUCUGAGGGGACCGUCCCCUCGGUAAUGGCGAAUGGGACCCA [C30U C49U], the self-cleavage worked out at 0.891.

Turning to GGCCGGCAUGGUCCCCGCCUCCUCGCUGGCGCCGGCUGGGCAACAUUCCGAGGGGACCGUCCCCUCGGUAAUGGCGAAUCGGACCCA [A16C G80C], the self-cleavage was found to be 0.201.

Take CGCCGGCAUGGUCCCAGCCUCCUCGCUGGCGCCGGCUGGGCAACAUUGCGAGGGGACCGUCCCCUCGGUAAUGGCGAAUGGGACCCA [G1C C48G]: the self-cleavage was 0.346.

For the variant GGCCGGCAUGGUCCCAGCCUCCUCGCCGGCGCCGGCUGGGCAACAUUCCGAGGGGACCGUCCCAUCGGUAAUGGCGAAUGGGACCCA [U27C C64A], the self-cleavage stood at 0.705.

As to GGCCGGCAUGGUCCCAGCCUGCUCGCUGGCGCCGGCUGGGCAACAUUCCGAGGGGACCGUCCCCUCGGUAAUCGCGAAUGGGACCCA [C21G G73C], the self-cleavage stood at 0.17.

GGCCGGCAUUGUCCCAGCCUCCUCGCUGGCGCCGGCUGGGCAACAUUCCGAGGGGACCGUCCCCUCGGUAUUGGCGAAUGGGACCCA [G10U A71U]: the self-cleavage turned out to be 0.639.

As for GGCCGGCAUGGUCCCAGCCUCCUCGCUGGUGCCGGCUGGCCAACAUUCCGAGGGGACCGUCCCCUCGGUAAUGGCGAAUGGGACCCA [C30U G40C], the self-cleavage was 0.0256.

With GGCCGGCAUGGUCCCAGCCUCCUCGCUGGCGCCGGCUGGGCAACAUUCCGAGGGGAACGUCCCCUCGGUAAUGGCGAAUGGGCCCCA [C57A A83C], the self-cleavage was 0.684.

On to GGCCGGCAUGGUCCCAGCCUCCUCGCUGGCGCCGGCUGAGCAACAUUCCGAGGGGACCGUCCCCUCGGUAAUGGCGAAUGGGAGCCA [G39A C84G], for which the self-cleavage amounted to 0.0852.

As for UGGCGGCAUGGUCCCAGCCUCCUCGCUGGCGCCGGCUGGGCAACAUUCCGAGGGGACCGUCCCCUCGGUAAUGGCGAAUGGGACCCA [G1U C3G], the self-cleavage came out at 1.6.

Take GGCCGGCAUCGUCCCAGCCUCCUCGCUGGCGCCGGCUGGGCAACAUUCCGAGGGGACCGUCCCCUCGGUAAUGGCGAAUGGUACCCA [G10C G82U]: the self-cleavage was determined as 0.348.

As to GGCCGGCAUGAUCCCAGCCUCCUCGCUGGCGCCGGCUGGGCAACAUUCCGAGGGGAGCGUCCCCUCGGUAAUGGCGAAUGGGACCCA [G11A C57G], the self-cleavage was 0.432.

Regarding GGCCGGCAUGGUCCCAGCCUCCUCGCUGGCGCCGGCUGGGCAACAUUCCGAGUGGACCGUCCCCUCGGUAAUGGCGAAUGCGACCCA [G53U G81C], the self-cleavage was found to be 0.385.

In the case of GGCCUGCAUGGUCCCAGCCUCCUCGCUGGCGCCGGCUGGGCAACAUUCCGAGGGGACUGUCCCCUCGGUAAUGGCGAAUGGGACCCA [G5U C58U], the self-cleavage turned out to be 0.277.

GGCCGGCAUGGUCCCAGCCUCCUCGUUGGCGCCGGCUGGGCAACAUUCAGAGGGGACCGUCCCCUCGGUAAUGGCGAAUGGGACCCA [C26U C49A]: the self-cleavage worked out at 1.11.
